Measured values from patent US11931401B2, “Runx3 modified protein for prevention or treatment of cancer” (GeneCraft Inc., priority 2020, dated 2024).
Substitutions are numbered along the chain they refer to. Numbers in names are those of the source. Entries after “also recorded” stand apart in the source; their conditions may differ. Blank lines part the entries; values can stand above or below the molecule they belong to.

Experiments:
[1] = tested on: stomach cancer cell lines; assay: Apoptosis by flow cytometry (FITC-Annexin V / propidium iodide), stomach cancer cell lines; format: cell-based; settings: stomach (gastric) cancer cell lines; listed as modified protein in which the 356th serine of Runx3 is substituted with alanine
Description: (§1) Each cell line was cultured in a 10 cm culture dish (5×10^5 cells) for 2 days and then approximately 2×10^6 cells of each cell line was infected with 1×10^8 VP of adenovirus or adenovirus Runx3 or adenovirus Runx3 S356A. After 48 hours, the cell death rate was measured by flow cytometry.

[2] = tested on: pancreatic cancer cell lines; assay: Apoptosis by flow cytometry (FITC-Annexin V / propidium iodide), pancreatic cancer cell lines; format: cell-based; settings: listed as modified protein in which the 356th serine of Runx3 is substituted with alanine
Description: as §1

[3] = tested on: lung cancer cell lines; assay: Apoptosis by flow cytometry (FITC-Annexin V / propidium iodide), lung cancer cell lines; format: cell-based
Description: as §1

[4] = target: T1, BRD2 (Homo sapiens, UniProt P25440); assay: Time-dependent BRD2-RUNX3 complex formation after serum stimulation by immunoprecipitation (IP) and immunoblotting (IB); format: binding; settings: overexpressed Myc-tagged protein; FIG. 1
T1 sequence (P25440 whole entry): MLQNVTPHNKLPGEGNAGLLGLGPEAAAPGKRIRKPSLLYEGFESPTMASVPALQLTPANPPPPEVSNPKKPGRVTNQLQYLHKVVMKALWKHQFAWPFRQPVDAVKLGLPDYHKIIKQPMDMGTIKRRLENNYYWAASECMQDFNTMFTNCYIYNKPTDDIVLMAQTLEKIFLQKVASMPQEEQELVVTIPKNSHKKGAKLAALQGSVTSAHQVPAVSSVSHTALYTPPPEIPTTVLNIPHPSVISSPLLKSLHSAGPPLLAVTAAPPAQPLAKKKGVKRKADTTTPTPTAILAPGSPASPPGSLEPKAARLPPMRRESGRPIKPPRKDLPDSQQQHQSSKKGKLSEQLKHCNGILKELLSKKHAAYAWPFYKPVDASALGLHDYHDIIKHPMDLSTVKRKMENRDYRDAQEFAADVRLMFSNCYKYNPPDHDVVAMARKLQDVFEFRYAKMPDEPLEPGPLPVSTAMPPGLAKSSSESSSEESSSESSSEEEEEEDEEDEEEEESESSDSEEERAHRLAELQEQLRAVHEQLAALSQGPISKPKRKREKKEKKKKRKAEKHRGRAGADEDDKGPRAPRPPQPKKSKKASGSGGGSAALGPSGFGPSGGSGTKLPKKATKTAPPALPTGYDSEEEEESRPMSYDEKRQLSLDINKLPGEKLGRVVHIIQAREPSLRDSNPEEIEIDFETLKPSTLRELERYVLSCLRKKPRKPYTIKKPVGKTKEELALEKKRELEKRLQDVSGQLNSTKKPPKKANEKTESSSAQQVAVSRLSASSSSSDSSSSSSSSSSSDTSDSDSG
Description: The antibody targeting RUNX3 (5G4) (Cat #ab40278) was obtained from Abcam (Cambridge, UK), and the antibody was diluted 1:3000. BRD2 (M01; 1:1000; Cat #H00006046-M01, Abnova, Taipei City, Taiwan) was used for immunoblotting and immunoprecipitation.
RUNX3 phosphorylation in serine, the 356th amino acid of Runx3 protein, was measured by immunoprecipitation (IP) and immunoblotting (IB) in the same manner as described in Experimental Method 3 above.

[5] = target: T1, BRD2; assay: Time for which Runx3 protein forms a complex with Brd2 protein (IP/IB); format: binding; settings: for time for which physical binding / complex with BRD2 was maintained: IP/IB
Description: The modified protein in which the 356th amino acid of Runx3 is substituted with alanine blocks the physical binding between Runx3 and CDK4, thereby inhibiting the phosphorylation of the 356th serine of Runx3 by CDK4. By inhibiting the conversion of the Rpa-Rx3-AC complex including Runx3 to the Rpa-Rx3-TR complex, the function of maintaining the anticancer activity of Runx3 is improved. Thus, the following experiment was performed to compare the time for the modified protein in which the 356th amino acid of Runx3 is substituted with alanine to form a complex by binding to Brd2 protein with the wild-type Runx3.
Particularly, the antibody targeting RUNX3 (5G4) (Cat #ab40278) was obtained from Abcam (Cambridge, UK), and the antibody was diluted 1:3000. BRD2 (M01; 1:1000; Cat #H00006046-M01, Abnova, Taipei City, Taiwan) was used for immunoblotting and immunoprecipitation.

- time for which binding with BRD2 was maintained after the serum stimulation [4]: ≤ 8 h
- time for which physical binding / complex with BRD2 was maintained [5]: up to 40 hours
B1: S356A: Runx3 modified protein: 356th serine substituted with alanine (TCA→GCA) (protein)
chain: MRIPVDPSTSRRFTPPSPAFPCGGGGGKMGENSGALSAQAAVGPGGRARPEVRSMVDVLADHAGELVRTDSPNFLCSVLPSHWRCNKTLPVAFKVVALGDVPDGTVVTVMAGNDENYSAELRNASAVMKNQVARFNDLRFVGRSGRGKSFTLTITVFTNPTQVATYHRAIKVTVDGPREPRRHRQKLEDQTKPFPDRFGDLERLRMRVTPSTPSPRGSLSTTSHFSSQPQTPIQGTSELNPFSDPRQFDRSFPTLPTLTESRFPDPRMHYPGAMSAAFPYSATPSGTSISSLSVAGMPATSRFHHTYLPPPYPGAPQNQSGPFQANPSPYHLYYGTSSGSYQFSMVAGSSSGGDRAPTRMLASCTSSAASVAAGNLMNPSLGGQSDGVEADGSHSNSPTALSTPGRMDEAVWRPY
modifications: Myc tag; Runx3 isoform2 amino acid
- cancer cell death efficacy compared to the wild-type Runx3 protein (in words) [1]: more effective in killing cancer cells; also recorded: further increased the cancer cell death efficacy
- cancer cell death efficacy compared to the wild-type Runx3 protein (in words) [2]: more effective in killing cancer cells; also recorded: further increased the cancer cell death efficacy
- cancer cell killing compared to the wild-type Runx3 protein (in words) [3]: more effective in killing cancer cells
- increase of apoptosis rate compared to the wild-type Runx3 protein ([3]; flow cytometry): ≥ 2 times

- time for which physical binding / complex with BRD2 was maintained [5]: up to 8 hours
- time after which the binding of Runx3 and BRD2 was separated ([5]; after the binding): 3 h
B2: S356 wild type: Wild-type Runx3 (Runt-related transcription factor 3) protein, 356th serine not substituted; SEQ ID NO: 2 (protein)
chain: B1 chain with A356S
modifications: Runx3 isoform2 amino acid
